We go through one molecule from US10287344B2, “Methods for reducing global chronic inflammation and the presence of melanoma” (Mayo Foundation for Medical Education and Research, priority 2008, dated 2019).

The assay concerns PBMC from healthy donors. Kind of assay: VEGF mediated Th1/Th2 polarity: PBMC stimulated 3 days with CD3/CD28 expander beads, intracellular IFN-γ/IL-4 in CD4+ T-cells. Particulars: 10 μg/mL IL-12 added to culture containing 16 pg/mL of VEGF. It is filed as cell-based, human. How it is done: PBMC (A) isolated from healthy donors were stimulated with PMA and ionomycin in the presence of brefeldin-A, permeabolized, and intracellularly stained for human IFN-γ (FITC) and human IL-4 (PE). PBMC were exposed to increasing concentrations of VEGF ([…]) without/with IL-12. All cells were immunostained with PC5 anti-human CD4. Purified CD4+ T-cells (B) were negatively isolated using Miltenyi beads, cultured, and stained in the same fashion as PBMC (A).
To determine the effect of VEGF on Th1 and Th2 polarity, PBMC from healthy donors were stimulated for 3 days with CD3/CD28 expander beads (Invitrogen Oslo, Norway) with and without increasing doses of recombinant VEGF (1-16 pg/mL). Cells were also cultured with 10 μg/mL recombinant human IL-12 (R and D Systems, Minneapolis, Minn.) or 8 μg/mL of a monoclonal anti-human IL-12 (R and D Systems Minneapolis, Minn. clone #24910). […]
In addition, healthy donor PBMC were stimulated with CD3^+/CD28^+ expander micro-beads for 3 days with increasing concentrations (1 pg/mL-16 pg/mL) of recombinant VEGF and assessed intracellular cytokine production of IL-4 (Th2 cytokine) and IFN-γ (Th1 cytokine) in CD4^+ T-cells at the end of in vitro culture (FIG. 8a).

B1: IL-12: recombinant human IL-12 (R and D Systems) (protein, UniProt P29459 23-219; P29460 23-328, looked up)
Interleukin-12 subunit alpha: RNLPVATPDPGMFPCLHHSQNLLRAVSNMLQKARQTLEFYPCTSEEIDHEDITKDKTSTVEACLPLELTKNESCLNSRETSFITNGSCLASRKTSFMMALCLSSIYEDLKMYQVEFKTMNAKLLMDPKRQIFLDQNMLAVIDELMQALNFNSETVPQKSSLEEPDFYKTKIKLCILLHAFRIRAVTIDRVMSYLNAS
Interleukin-12 subunit beta: IWELKKDVYVVELDWYPDAPGEMVVLTCDTPEEDGITWTLDQSSEVLGSGKTLTIQVKEFGDAGQYTCHKGGEVLSHSLLLLHKKEDGIWSTDILKDQKEPKNKTFLRCEAKNYSGRFTCWWLTTISTDLTFSVKSSRGSSDPQGVTCGAATLSAERVRGDNKEYEYSVECQEDSACPAAEESLPIEVMVDAVHKLKYENYTSSFFIRDIIKPDPPKNLQLKPLKNSRQVEVSWEYPDTWSTPHSYFSLTFCVQVQGKSKREKKDRVFTDKTSATVICRKNASISVRAQDRYYSSSWSEWASVPCS
On to B1, for which the “shift in T-helper polarity in culture containing VEGF” value was “prevented the shift in T-helper polarity from Th1 to Th2”.
